# Target: SARS-CoV-2 spike receptor-binding domain (RBD), recombinant, produced in house (SARS-CoV-2) (UniProt P0DTC2)
# Test: SEC
substance,measurement,value
"SARS-CoV-2 spike receptor-binding domain (RBD), recombinant, produced in house (from UniProt P0DTC2) (domain or fragment)",stoichiometry N,3
